Results taken from US6500647 (MOGAM BIOTECHNOLOGY RESEARCH INSTITUTE, dated 2002).

T1: PTH receptor of UMR106 cell line (rat osteoblast-like osteosarcoma cell line) (rat, UniProt P25961 27-591)
T1 construct: whole, on cells; The species follows from the cell line (rat); also called its receptor; the receptor
T1 sequence (looked up): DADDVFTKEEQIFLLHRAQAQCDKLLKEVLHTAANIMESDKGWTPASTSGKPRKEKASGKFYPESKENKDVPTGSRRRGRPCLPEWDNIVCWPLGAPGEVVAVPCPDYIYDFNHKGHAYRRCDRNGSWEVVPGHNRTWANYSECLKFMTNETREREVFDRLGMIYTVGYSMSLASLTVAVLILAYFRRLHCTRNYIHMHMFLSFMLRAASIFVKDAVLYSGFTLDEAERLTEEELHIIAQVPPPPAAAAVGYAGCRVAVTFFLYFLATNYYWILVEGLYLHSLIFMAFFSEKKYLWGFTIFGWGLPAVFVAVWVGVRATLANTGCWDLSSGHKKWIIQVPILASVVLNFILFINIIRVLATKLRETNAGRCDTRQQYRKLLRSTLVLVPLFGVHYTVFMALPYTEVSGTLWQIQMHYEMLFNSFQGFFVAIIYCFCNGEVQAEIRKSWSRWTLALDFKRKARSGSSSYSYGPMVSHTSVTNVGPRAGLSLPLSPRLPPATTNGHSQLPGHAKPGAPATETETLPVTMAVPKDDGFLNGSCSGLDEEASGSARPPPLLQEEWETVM

B1: synthetic human PTH (shPTH (1-84), Sigma Chemical Co., USA) (ligand, UniProt P01270 32-115, looked up)
chain: SVSEIQLMHNLGKHLNSMERVEWLRKKLQDVHNFVALGAPLAPRDAGSQRPRKKEDNVLVESHEKSLGEADKADVNVLTKAKSQ
notes: mature; Control hormone, bought; also called synthetic PTH
B2: human recombinant PTH (rhPTH (1-84)) (ligand, UniProt P01270 32-115, looked up)
chain: SVSEIQLMHNLGKHLNSMERVEWLRKKLQDVHNFVALGAPLAPRDAGSQRPRKKEDNVLVESHEKSLGEADKADVNVLTKAKSQ
notes: mature; also called recombinant human PTH; purified human PTH

How the values were obtained:
[1] = target: T1, PTH receptor of UMR106 cell line (rat …); test: competition with 125I-(Nle8,18Tyr34)-bPTH (1-34) for binding to UMR106 cells, 15 C, 4 h
Procedure: A binding test to PTH receptor was carried out as followings (see: Chohei Shigeno et al., The Journal of Biological Chemistry, 263(8):3864–3871(1988)): 10^5 UMR106 cells per well was added into a 24 well-plate and cultured for 4 to 8 days. Medium was exchanged every two days and it was exchanged daily at 3 days before the test. On the other hand, in order to prepare (Nle^{8,18}Tyr^34)-bovine PTH (1–34)-NH_2(bPTH (1–34)) (see: Gino V. Segre et al., JBC, 254(15) :6980–6986(1979)) which was labelled with a radioactive isotope, ^125I at a tyrosine residue of carboxy-terminus, bPTH (1–34) was iodinated with Na^125I using chloramine T (Sigma Chemical Co., USA) as a catalyst. […]
Binding affinity of PTH to its receptor was determined by comparing competitive inhibition of rhPTH (1–84) and shPTH (1–84) against ligand binding to the receptor by using the ^125I-labelled (Nle^{8,18}Tyr^34)-bPTH (1–34) as a ligand. […] The solution obtained after extraction was mixed with the solution obtained after washing with 0.5 ml of the binding buffer and counted for its radioactivity employing γ-counter.
Specific binding was determined by subtracting value of nonspecific binding measured by using each competitive hormone of 1 mM from value of binding radioactivity measured above.

[2] = target: T1, PTH receptor of UMR106 cell line (rat …); test: cell-based or functional assay

Binder | IC50 [1] [nM] | EC50 (concentration of hormone required for stimulating production of intracellular cAMP to reach an increase of 50%) [2] [nM]
B1 | 18.6 | 1.9
B2 | 17.3 | 1.3
